From patent publication US20250019465A1, “COMPOSITIONS AND METHODS FOR RARE HEPARAN SULFATE GLYCAN-TARGETED CANCER TREATMENT” (THE BOARD OF REGENTS OF THE UNIVERSITY OF TEXAS SYSTEM, priority 2021, published 2025)

Columns and labels:
RenCa kidney cancer = RenCa kidney cancer tumor, intra-tumoral glycan injection; format: in vivo, BALB/c mice
Protocol: (§1) B16 melanoma cells (5×10^5 cells/mouse) were implanted s.c. into B6 mice (n=4); on day 6, 1 mg of Glycan #3 (G3) or Glycan #12 (G12, see FIG. 1A) was injected intra-tumorally 5 times every 2 days. Tumor volume was measured (FIG. 10A). On day 17, tumors (photos of 2 representatives) were excised. […] Similar experiments were performed with RenCa kidney cancer in BALB/c mice and data are shown in FIG. 10C (tumor volume) and 10D (expression of angiogenic factors). Data shown is representative of 2 experiments. *p<0.0001.

DC-HIL-Fc = DC-HIL-Fc binding to HS oligosaccharide microarray; details: DC-HIL-Fc 10 mg/ml, visualized by Cy-3, FIG. 1B
Protocol: Various HS oligosaccharides (4-8-mers of HS disaccharide) were imprinted on microarray (Gycan Therapeutics Inc). These glycans were chosen based on sulfation patterns in mammalian cells (FIG. 1A). DC-HIL-Fc (10 mg/ml) was applied and then hybridized to the microaway and visualized by Cy-3 (mean±SD, n=6). […] SVEC mouse endothelial cells or activated T-cells were then incubated with DC-HIL-Fc (10 mg/ml) plus indicated oligoglycans, and DC-HIL binding was fluorescently stained with anti-Fc Ab and FACS analysis. FIG. 1C provides histograms showing binding of Fc control (blue) or DC-HIL-Fc (red), respectively.

[1] = system: DC-HIL-induced angiogenesis; experiment: Matrigel plug assay of DC-HIL-induced angiogenesis; format: in vivo, mice; details: DC-HIL-Fc 200 nM with 10× molecular excess of glycan in matrigel, s.c., 2 weeks
Protocol: In order to test the role rHS (Glycan #12) plays in controlling angiogenesis, DC-HIL-Fc (DCH) or Fc (200 nM) was mixed with 10× molecular excess of Glycan #3 or Glycan #12 (See FIG. 1A) and added to matrigel, and implanted s.c. into mice; 2 weeks later, plugs were excised and observed for blood vessels under microscope. Representative photos are shown (FIG. 9A). Plugs were quantified for Hb content (FIG. 9B). Red-dashed line indicates Hb level in Fc-control plug. Data are shown average±SD, n=4.

B16 melanoma cells [2] = experiment: B16 melanoma s.c. tumor, intra-tumoral glycan injection; format: in vivo, B6 mice
Protocol: as §1

LacZ-LL2 cells = experiment: Spontaneous lung metastasis from resected s.c. LacZ-LL2 primary tumor; format: in vivo, mice; details: Ab injection every 3 days after tumor resection, lungs 2 weeks later
Protocol: Briefly, mice were implanted s.c. with LacZ-LL2 cells, 2 weeks later, tumor was resected surgically. Mice were then treated with Ab injection every 3 days. 2 weeks later, lungs were excised and stained with X-gal (labeled LacZ-LL2 cells in blue) and blue stains were counted. FIG. 17B provides representative images of lung sections stained with X-gal, showing by green or red arrows. The number of tumor cells per field of view (FOV) were counted and plotted in FIG. 17C alongside and average of 5 FOVs. Each dot represents an individual mouse.

B16 cells = experiment: Experimental lung metastasis after i.v. injection of B16 cells; format: in vivo, mice
Protocol: (§2) On day 6 after implantation s.c. of B16 melanoma cells (2×10^5 cells/mouse), mice were treated i.p. with 1A7 or KLH Ab (10 mg/mouse, every 2 days, 5×, shown by reverse arrows). In separate experiments, tumor free mice were injected intravenously (i.v) with 1A7 or KLH (10 mg/mouse) either one day before (d-1) or one day after (d1) intravenous (i.v) injection with B16 or LL2 cells (2×10^5 cells/mouse, n=5). On day 12 (for mice injected with B16 cells) or day 18 (for mice injected with LL2 cells), the number of GFP+ cells in 5×10^5 lung cells was determined via FACS. FIG. 11C-11E summarize numbers of positive cells in each condition.
1A7 SdAb was compared to other standard treatments (e.g., anti-PDL1 antibody, anti-VEGFR2 antibodies) for its ability to inhibit metastasis using the B16 cell model. Mice (n=5) were injected i.v. with KLH, 1A7 SdAb (10 mg/mouse), anti-DC-HIL (DCH), anti-PDL1 (PL1), anti-VEGFR2 (VER) or combined PL1/VER (PL/VE) mAb ([…]). Next day, mice were given i.v. injection of 2×10^5 B16 cells/mouse. Note: Ab injection was a one-time treatment. On Day 14, lung was enumerated by FACS for GFP^+ cells (FIG. 12A) and the number in 5×10^5 lung cells (average±sd, n=5) are summarized (FIG. 12B). *p<0.0001; **p=0.007. Data are representative of 2 separate experiments. […]

[3] = system: human SK-MEL-28 melanoma cell line; experiment: Lung metastasis of human SK-MEL-28 melanoma cells in xenograft NSG mice; format: in vivo; details: single i.v. injection 10 mg/mouse one day before SK-MEL-28 i.v., Day 14, vs KLH
Protocol: A final experiment was performed to determine the effect of an anti-rHS antibody on human lung metastasis in a xenograft mouse model. Immuno-deficient NSG mice (n=5) were injected i.v. with KLH or 1A7 SdAb (10 mg/mouse). Next day, mice were given i.v. injection of 2×10^5 human SK-MEL-28 melanoma cell line. Note: Ab injection is just one time. On Day 14, lung was enumerated by FACS for GFP^+ cells (FIG. 16A) and the number in 5×10^5 lung cells (average±sd, n=5) are summarized (FIG. 16B). *p<0.0001. Data are representative of 2 separate experiments. 1A7 single injection decreased human melanoma in lung by 84% (FIGS. 16A and 16B).

[4] = HS glycan microarray analysis of 1A7 SdAb (53 glycan compounds); format: binding; details: 1A7 SdAb 10 μg, anti-c-myc label, FIG. 4
Protocol: 1A7 SdAb (10 μg) was hybridized with HS glycan microarray consisting of 53 glycan compounds (Glycan Therapeutics Inc) and fluorescently labeled with anti-c-myc. Hybridized arrays were analyzed for fluorescence intensity (U); average±sd, n=100). SdAb has the C-terminal c-myc tag.

Pan-T cells = experiment: Anti-CD3-induced Pan-T cell proliferation (3H-thymidine) on wells coated with 1A7; format: cell-based, human; details: wells pre-coated with 4 mg/well Ab plus increasing doses of anti-CD3 Ab, 2 days, vs KLH control Ab
Protocol: The ability of 1A7 to affect induction of T-cell activation using anti-CD3 antibodies was tested. Pan-T cells isolated from blood sample of a healthy donor were incubated with wells (2×10^5 cells/well) pre-coated with 1A7 or KLH control Ab (4 mg/well) plus increasing doses of anti-CD3 Ab. After incubation for 2 days, ^3H-thymidine was pulsed for 16 h, harvested, and counted for cpm in cells. […] Data are shown average±SD, n=3

LL2 cells = experiment: Experimental lung metastasis after i.v. injection of LL2 cells; format: in vivo, mice; details: day 18, vs KLH
Protocol: as §2

[5] = ELISA: DC-HIL-Fc binding to Glycan #12-coated wells with increasing dose of 1A7 SdAb; details: DC-HIL-Fc 1 mg/ml, increasing dose of 1A7 SdAb, FIG. 3D
Protocol: SdAbs were obtained as described in Example 2. All SdAb clones were purified from DNA-transfected CHO cells. […] Biotinylated Glycan #12 (0.5 mg/ml) was immobilized to ELISA wells precoated with streptavidin (1 mg/ml) and incubated with increasing doses of 1A7 SdAb (FIG. 3A), FGF2 (negative control, FIG. 3B) and VEGF (positive control, FIG. 3C). After incubating for 1 h, wells were washed and binding measured by anti-c-myc Ab (OD450); SdAb has the C-terminal c-myc tag. In FIG. 3D, DC-HIL-Fc (1 mg/ml) was incubated with Glycan #12-coated wells, with increasing dose of 1A7 SdAb. % inhibition is shown. […] In FIG. 3E: FGF2 or VEGF (0.25 or 0.5 mg/ml) was added to Glycan #12-wells with 0.5 mg/ml of 1A7 or control SdAb (Ctrl), which is specific for KLH. % inhibition is shown. To examine the expression of the 1A7 epitope, immortalized murine […] cells (SVEC) were treated with 50 mM Sodium Cholate (red histogram) or untreated (Blue). Next day, cells were analyzed by FACS for expression of 1A7 epitope (FIG. 3F). […] FIG. 3H summarizes all data from experiments of binding/inhibition and expression analysis on different tumor lines. “Block DC-HIL (or VEGF or FGF2)” means blocking of binding to Glycan #12.

B16F10 melanoma cells = experiment: B16F10 melanoma s.c. tumor growth and tumor IHC, rHS Ab vs PD1 Ab; format: in vivo, B57BL/6 mice
Protocol: Antitumor activity of rHS Ab to B16 melanoma was examined. Briefly, B16F10 melanoma cells (5×10^5 cells/mouse) were implanted s.c. into B57BL/6 mice (n=5). Six days later, mice were treated with i.p. injection of Ab every 2 days; 1A7 rHS Ab (20 mg/mouse), PD1 ([…]), rHS/PD1 (20 mg and 200 mg, respectively) or control (Ctrl) Ab ([…]). Tumor volume was measured every 2 days (FIG. 20A). On day 15, all mice were euthanized, tumors were excised and IHC-stained with marker Ab (CD4, CD8, CD11b, and CD31) (FIG. 20B). Positive staining is assayed by % positively stained areas in 4.5 mm2 view (mean±sd, n=5). […] Thus, rHS Ab inhibited melanoma growth, reversing immune suppression and tumor angiogenesis.

B16 melanoma cells [6] = experiment: B16 melanoma s.c. tumor growth, i.p. 1A7 or KLH Ab; format: in vivo, mice; details: 10 mg/mouse i.p. every 2 days 5× from day 6, vs KLH Ab
Protocol: as §2

GlcNS6S-GlcA-GlcNS6S-IdoA2S-GlcNS6S-IdoA2S-GlcNS6S-GlcA [Glycan #12]
Tumor volume (growth of kidney cancer) (RenCa kidney cancer; RenCa in BALB/c mice, intra-tumoral glycan): markedly attenuated growth
tumor expression of angiogenic factors (qRT-PCR relative to GAPDH) (RenCa kidney cancer; RenCa tumors): inhibited tumor expression of angiogenic factors
binding of DC-HIL-Fc to each glycan as average RFU (DC-HIL-Fc): strongest binding
DC-HIL-induced angiogenesis (blood vessels, Hb content of plugs) [1]: completely abrogated
Tumor volume (growth of melanoma) (B16 melanoma cells [2]; B16 s.c. in B6 mice, 1 mg glycan intra-tumorally 5 times every 2 days from day 6): markedly attenuated growth
tumor expression of angiogenic factors (qRT-PCR relative to GAPDH) (B16 melanoma cells [2]; B16 tumors excised on day 17): inhibited tumor expression of angiogenic factors

B1: 1A7: single domain antibody clone, single variable heavy chain (VH), SEQ ID NO: 18, specific for rare heparan sulfate glycan (Glycan #12) (protein)
VHH: QVQLLESGGGLVQPGGSLRLSCAASGVKVSTKSMGWVRQAPGKGLEWVSTIARNDGSTYYADSVKGRFTISRDNSKNTLYLQMNSLRAEDTAVYYCARMKKNGGSKRQPHIRSWGQGTLVTVSS
modifications: Synthetic construct - Clone 1A7
spontaneous lung metastasis (tumor cells per field of view, X-gal) (LacZ-LL2 cells): significantly reduced
lung metastasis: number of GFP+ cells in 5×10^5 lung cells (B16 cells; B16 i.v., single 10 mg/mouse i.v. one day before (d-1), day 12, vs KLH): significantly reduced
growth of B16 metastasis (GFP+ cells in 5×10^5 lung cells) compared to other treatments (B16 cells; single i.v. 10 mg/mouse one day before B16 i.v., Day 14, comparators anti-PDL1, anti-VEGFR2 200 mg/mouse): inhibited growth of B16 metastasis, more than currently FDA-approved drugs
decrease of human melanoma in lung (GFP+ cells in 5×10^5 lung cells) [3]: 84%
affinity for Glycan #12 (fluorescence intensity on HS glycan microarray) [4]: robust affinity
T cell replication (activation), 3H-thymidine cpm (Pan-T cells): significantly less replication
lung metastasis: number of GFP+ cells in 5×10^5 lung cells (LL2 cells; single 10 mg/mouse i.v. one day after (d1)): significantly reduced
lung metastasis: number of GFP+ cells in 5×10^5 lung cells (LL2 cells; single 10 mg/mouse i.v. one day before (d-1)): significantly reduced
competition with DC-HIL-Fc for binding to Glycan #12 (% inhibition) [5]: compete for a similar binding site
Tumor volume (melanoma growth) compared with PD1 Ab (B16F10 melanoma cells; 20 mg/mouse i.p. every 2 days from day 6, PD1 200 mg/mouse): better outcomes than PD1 Ab
tumor density of CD4 T cells (% positively stained areas, IHC) (B16F10 melanoma cells; tumors excised day 15): increased tumor densities
tumor density of CD8 T cells (% positively stained areas, IHC) (B16F10 melanoma cells; tumors excised day 15): increased tumor densities
tumor density of CD11b (% positively stained areas, IHC) (B16F10 melanoma cells; tumors excised day 15): decreased densities
tumor density of microvacuoles (CD31, % positively stained areas, IHC) (B16F10 melanoma cells; tumors excised day 15): decreased densities
Tumor volume (tumor growth) (B16 melanoma cells [6]): significantly reduced
